Source: paper PMC6639382, “Structural mechanism of synergistic activation of Aurora kinase B/C by phosphorylated INCENP” (Nature Communications, 2019)

T1: Aurora kinase A (AURKA) (Homo sapiens, UniProt O14965)
T1 construct: residues 122–403
T1 sequence (O14965 122-403): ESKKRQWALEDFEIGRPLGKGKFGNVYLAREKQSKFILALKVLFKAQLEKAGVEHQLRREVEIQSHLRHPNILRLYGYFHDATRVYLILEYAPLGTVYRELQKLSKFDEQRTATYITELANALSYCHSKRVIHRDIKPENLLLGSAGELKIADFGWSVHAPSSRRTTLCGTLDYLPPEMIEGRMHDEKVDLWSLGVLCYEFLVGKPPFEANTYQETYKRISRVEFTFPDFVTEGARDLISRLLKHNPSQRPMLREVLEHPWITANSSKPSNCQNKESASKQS

T2: Aurora kinase C kinase domain (truncation not stated for this experiment), phosphorylated (human)
T2 sequence (Q9UQB9 whole entry, looked up): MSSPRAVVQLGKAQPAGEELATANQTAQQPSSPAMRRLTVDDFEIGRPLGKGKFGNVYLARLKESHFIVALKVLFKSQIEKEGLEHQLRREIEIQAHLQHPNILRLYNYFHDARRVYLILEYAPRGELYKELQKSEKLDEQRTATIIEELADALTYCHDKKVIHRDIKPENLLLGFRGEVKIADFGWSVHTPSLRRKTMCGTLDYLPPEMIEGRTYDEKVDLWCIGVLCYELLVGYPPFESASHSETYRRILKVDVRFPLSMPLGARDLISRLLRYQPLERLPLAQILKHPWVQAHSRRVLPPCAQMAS

T3: Aurora kinase C kinase domain (truncation not stated for this experiment), phosphorylated
T3 chain: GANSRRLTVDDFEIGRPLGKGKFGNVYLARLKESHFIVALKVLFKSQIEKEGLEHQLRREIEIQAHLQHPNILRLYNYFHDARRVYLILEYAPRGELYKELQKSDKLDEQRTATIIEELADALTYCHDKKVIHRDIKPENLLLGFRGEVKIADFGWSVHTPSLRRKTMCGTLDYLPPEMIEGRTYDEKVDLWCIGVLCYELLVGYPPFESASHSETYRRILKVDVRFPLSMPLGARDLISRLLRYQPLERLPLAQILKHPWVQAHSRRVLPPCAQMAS


Tests used:
Aurora kinase B (AURKB) = target: T4, Aurora kinase B (AURKB) (Homo sapiens, UniProt Q96GD4); assay: isothermal titration calorimetry; BLI kinetics (slow off-rate); assay type: binding
T4 construct: kinase domain co-expressed with INCENP residues 835–903; with INCENP (residues 835–903)
T4 sequence (Q96GD4 77-327 limits assumed): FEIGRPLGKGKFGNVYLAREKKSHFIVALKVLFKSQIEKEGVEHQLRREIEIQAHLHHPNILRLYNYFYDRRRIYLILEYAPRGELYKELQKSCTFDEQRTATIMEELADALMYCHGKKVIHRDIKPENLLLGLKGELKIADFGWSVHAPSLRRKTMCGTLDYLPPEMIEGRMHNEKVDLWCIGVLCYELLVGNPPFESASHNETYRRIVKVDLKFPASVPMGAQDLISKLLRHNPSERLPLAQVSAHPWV
T4 sequence (Q9NQS7 835-903 partner): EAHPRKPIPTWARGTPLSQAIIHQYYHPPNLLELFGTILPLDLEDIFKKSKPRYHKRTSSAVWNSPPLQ

Aurora kinase A (AURKA) = target: T1, Aurora kinase A (AURKA); assay: crystal structure ([…] Å) and isothermal titration calorimetry; assay type: binding
Aurora kinase C (AURKC) = target: T5, Aurora kinase C (AURKC) (Homo sapiens, UniProt Q9UQB9); assay: co-crystal structure ([…] Å); assay type: binding
T5 construct: residues 36–305 of AURKC isoform 1; with INCENP (residues 835–903, phosphorylated on Ser893 and Ser894)
T5 sequence (Q9NQS7 835-903 partner, one chain of several): as the sequence (Q9NQS7 835-903 partner) above

[1] = target: T2, Aurora kinase C kinase domain (truncation not stated for this experiment), phosphorylated (human)
[2] = target: T2, Aurora kinase C kinase domain (truncation not stated for this experiment), phosphorylated (human); assay: native MS; native nano-ESI ion mobility-mass spectrometry of the co-purified complexes, 250 mM ammonium acetate, ca. 10 µM, gentle ionisation conditions
[3] = target: T3, Aurora kinase C kinase domain …; assay: native mass spectrometry (native ESI-MS); details: chain shown with the change; concentration of ca. 10 µM; same gentle ionisation conditions; parent: 0

Sequence of INCENP IN-box (residues 835–903), phosphorylated on the TSS motif (Q9NQS7 other isoform, or with tags, fused parts or gaps): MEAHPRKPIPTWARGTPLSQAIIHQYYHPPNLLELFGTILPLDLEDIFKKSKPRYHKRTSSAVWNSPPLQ

Kcat of the AURKC:INCENP complex on a peptide substrate [1] | Km(peptide) of the AURKC:INCENP complex [1] [µM] | Molecule | further results
46300 | 83 | INCENP IN-box (residues 835–903) S893A (from UniProt Q9NQS7-1 835-903) (domain or fragment) | –
48800 | 18.7 | INCENP IN-box (residues 835–903), phosphorylated on the TSS motif (from UniProt Q9NQS7-1 835-903) (domain or fragment) | % complex formed [2]: 100%

The next lines start with the molecule.

Molecule | Kcat of the AURKC:INCENP complex on a peptide substrate [1] | Km(peptide) of the AURKC:INCENP complex [1] [µM] | further results
COc1ccc(NC(=O)Nc2ccc3c(c2)C(=O)N([C@@H](C)CO)C[C@H](C)[C@H](CN(C)Cc2ccc4c(c2)OCO4)O3)cc1 [BRD-7880] | – | – | Kd (Aurora kinase B (AURKB)): 16 nM; Kd (Aurora kinase A (AURKA)): 341 nM; co-crystal structure (1.75 Å) (Aurora kinase C (AURKC)): The co-crystal structure with AURKC:INCENP reveals a completely ordered BRD-7880 molecule (Fig. 5a) which binds in the ATP-binding site
INCENP IN-box (residues 835–903) S894A (from UniProt Q9NQS7-1 835-903) (domain or fragment) | 38800 s⁻¹ | 83 | –
INCENP IN-box (residues 835–903) W897A (from UniProt Q9NQS7-1 835-903) (domain or fragment) | 41800 | 25.1 | –
INCENP IN-box (residues 835–903), phosphorylated on the TSS motif, Q9NQS7-1 S893A; S894A; W897A (protein) MEAHPRKPIPTWARGTPLSQAIIHQYYHPPNLLELFGTILPLDLEDIFKKSKPRYHKRTAAAVANSPPLQ | – | – | other: % unbound AURKC (% unbound AURKC) [3]: 40
